Results taken from the supplement of paper PMC9170038.

System: MS2 coat protein
Experiment: apparent KD of MS2 coat protein; designed switch direction (-1 OFF switch, 1 ON switch): -1; higher = weaker reporter binding
Method in brief: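 Apparent KD, taken as the median over clusters for each design, was obtained by curve-fitting normalised cluster fluorescence. Designed RNA switches had been transcribed on Illumina chips by stalled E. coli RNA polymerase and titrated with SNAP-549-labelled MS2 coat protein, doubling from 0.7 or 1.5 nM to 3 µM.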

[1] = input ligand: microRNA oligo, concentration not stated
[2] = Eterna round: R95, input ligand: microRNA oligo, concentration not stated
[3] = Eterna round: R95, input ligand: FMN 200 uM
[4] = Eterna round: R95, input ligand: none

Sequence: UCCUGACAUGAGGAUCACCCAUGUUAGGAUAUGACAUUUGGCGCGACAGUGUGGAGUGUUAGAAGGGAUGUGGG [-29.9, -27.2 kcal, A 24%] (Eterna round: R97, puzzle: Exclusion 1)
- apparent KD of MS2 coat protein (input ligand: FMN 200 uM): 18.3 nM
- apparent KD of MS2 coat protein (input ligand: none): 16.5 nM

Sequence: UCCUUACUGGUCAGGAUAUACAUUCGCGGGUGGGUGUAGAAGGGACAUGAGGAUCACCCAUGUACGUUACAUCC [alecazam54g] (Eterna round: R97, puzzle: Brourd's mod of Exclusion 4)
- apparent KD of MS2 coat protein (input ligand: FMN 200 uM): 18 nM
- apparent KD of MS2 coat protein (input ligand: none): 16 nM

Sequence: UCGAUGUGAGGAUAUAUAUGCAGUAAUCCUUAUAUUUUAUAACUUGAGGAUCACCCAAGUAGAAGGCGCGACGU [JR_Ex2_Sub058] (Eterna round: R97, puzzle: Exclusion 2)
- apparent KD of MS2 coat protein (input ligand: FMN 200 uM): 27.3 nM
- apparent KD of MS2 coat protein (input ligand: none): 31.1 nM

Sequence: UCGAUGUGAGGAUAUAUAUGCAGUAGUCCUUAUGUUUUAUAACUUGAGGAUCACCCAAGUAGAAGGCGCGACGU [JR_Ex2_Sub060] (Eterna round: R97, puzzle: Exclusion 2)
- apparent KD of MS2 coat protein (input ligand: FMN 200 uM): 49.2 nM
- apparent KD of MS2 coat protein (input ligand: none): 39.5 nM

Sequence: UCGCUCCGUGUAGGAUAUCGCCGUACUAUGCGGCGAGAAGGACAUGAGGAUCACCCAUGUAUGUUAUUAUCACGCGUGGCGCAA [Design 61] (Eterna round: R96, puzzle: Exclusion NG 1)
- apparent KD of MS2 coat protein (input ligand: FMN 200 uM): 17.9 nM
- apparent KD of MS2 coat protein [1]: 13.4 nM
- apparent KD of MS2 coat protein (input ligand: none): 16.2 nM

Sequence: UCGCUCCGUGUAGGAUAUCGCCGUUCUAUUCGGCGAGAAGGACAUGAGGAUCACCCAUGUAUGUUAUUAUCACGUGUGGCGCGC [Design 55] (Eterna round: R96, puzzle: Exclusion NG 1)
- apparent KD of MS2 coat protein (input ligand: FMN 200 uM): 36 nM
- apparent KD of MS2 coat protein [1]: 14 nM
- apparent KD of MS2 coat protein (input ligand: none): 20.6 nM

Sequence: UCGCUCCGUGUAGGAUAUCGUUGUACCCUGCGGCGAGAAGGACAUGAGGAUCACCCAUGUAUGUUAUUAUCACGCGUGGCGCAA [Design 69] (Eterna round: R96, puzzle: Exclusion NG 1)
- apparent KD of MS2 coat protein (input ligand: FMN 200 uM): 15.9 nM
- apparent KD of MS2 coat protein [1]: 13.4 nM
- apparent KD of MS2 coat protein (input ligand: none): 18.3 nM

Sequence: UCGCUCCGUGUAGGAUAUCGUUGUAUGAUGCGGCGAGAAGGACAUGAGGAUCACCCAUGUAUGUUAUUAUCACGCGUGGCGCAA [Design 65] (Eterna round: R96, puzzle: Exclusion NG 1)
- apparent KD of MS2 coat protein (input ligand: FMN 200 uM): 18.5 nM
- apparent KD of MS2 coat protein [1]: 15.3 nM
- apparent KD of MS2 coat protein (input ligand: none): 20.6 nM

Sequence: UCGCUCCGUGUAGGAUAUCGUUGUAUUAUGCGGCGAGAAGGACAUGAGGAUCACCCAUGUAUGUUAUUAUCACGCGUGGCGCAA [Design 66] (Eterna round: R96, puzzle: Exclusion NG 1)
- apparent KD of MS2 coat protein (input ligand: FMN 200 uM): 14.8 nM
- apparent KD of MS2 coat protein [1]: 14.8 nM
- apparent KD of MS2 coat protein (input ligand: none): 18.7 nM

Sequence: UCGCUCCGUGUAGGAUAUCGUUGUAUUCUGCGGCGAGAAGGACAUGAGGAUCACCCAUGUAUGUUAUUAUCACGCGUGGCGCAA [Design 67] (Eterna round: R96, puzzle: Exclusion NG 1)
- apparent KD of MS2 coat protein [1]: 13.9 nM

Sequence: UCGGCGCGAGGAUAUACGUUUGCUUUUUUUUGUCUUUGUGUACAUGAGGAUCACCCAUGUAGAAGGCGCGCCGC [Apr-15 SS2-22] (puzzle: Exclusion 2)
- apparent KD of MS2 coat protein [2]: 18.5 nM

Sequence: UCGUGUAUAGAGGAUAUAUUAAUAUUUAAAACAAUAGAAGGCUAAACAUGAGGAUCACCCAUGUAUUUGGUUUU [JR_Ex6_Sub054] (Eterna round: R97, puzzle: Exclusion 6)
- apparent KD of MS2 coat protein (input ligand: FMN 200 uM): 58.4 nM
- apparent KD of MS2 coat protein (input ligand: none): 20.9 nM

Sequence: UCGUGUGCGUAGGAUAUCGGUAUGAAGGGAGAAUGAGAAGGGCGGACAUGAGGAUCACCCAUGUGUGCCGGAAA [EX6 B.4] (Eterna round: R97, puzzle: Exclusion 6)
- apparent KD of MS2 coat protein (input ligand: FMN 200 uM): 43.3 nM
- apparent KD of MS2 coat protein (input ligand: none): 18 nM

Sequence: UCGUUCCGUGUAGGAUAUUGGCCUUCCUCGGGCCGAGAAGGACAUGAGGAUCACCCAUGUAUGCUAUUAUCGCGCGUGGCGCAC [Design 96] (Eterna round: R96, puzzle: Exclusion NG 1)
- apparent KD of MS2 coat protein (input ligand: FMN 200 uM): 141 nM
- apparent KD of MS2 coat protein [1]: 24.5 nM
- apparent KD of MS2 coat protein (input ligand: none): 33 nM

Sequence: UCUCCACAUGAGGAUCACCCAUGUCAGGAUAUGCUGCGGCUACUAAAAGAGAAUUGCGGCAGAAGGGACACGCC [EX1 B.25] (Eterna round: R97, puzzle: Exclusion 1)
- apparent KD of MS2 coat protein (input ligand: FMN 200 uM): 68 nM
- apparent KD of MS2 coat protein (input ligand: none): 20.2 nM

Sequence: UCUCCUCCCGUAAGGAUAUUCAUGCGUACCACGCGGAAGAAGGUACAUGAGGAUCACCCAUGUAAUUAACACCG [BmEX4 B.9] (Eterna round: R97, puzzle: Brourd's mod of Exclusion 4)
- apparent KD of MS2 coat protein (input ligand: FMN 200 uM): 30.7 nM
- apparent KD of MS2 coat protein (input ligand: none): 24.3 nM

Sequence: UCUCGUUGGCAAGGAUAUCCUACAUUGUUCUGGCCCGGGCAUGCUACAUGAGGAUCACCCAUGUGGGAGAAGGUGCGUCAUUGC [Design 23] (Eterna round: R96, puzzle: Exclusion NG 2)
- apparent KD of MS2 coat protein (input ligand: FMN 200 uM): 146 nM
- apparent KD of MS2 coat protein [1]: 77.4 nM
- apparent KD of MS2 coat protein (input ligand: none): 140 nM

Sequence: UCUGGUCGAGGAUAUACAUGAGGAUCACCCAUGUGGUUACGUGACGAUAGUCACGAAUGUAGAAGGCGACCAGA [E3/4-A2] (Eterna round: R97, puzzle: Exclusion 3)
- apparent KD of MS2 coat protein (input ligand: FMN 200 uM): 326 nM
- apparent KD of MS2 coat protein (input ligand: none): 230 nM

Sequence: UCUGGUCGAGGAUAUACGUGAGGUGCUUCGGCACCAGGUCUACAUGAGGAUCACCCAUGUAGAAGGCGACCAGA [EX2 #61] (Eterna round: R97, puzzle: Exclusion 2)
- apparent KD of MS2 coat protein (input ligand: FMN 200 uM): 62.1 nM
- apparent KD of MS2 coat protein (input ligand: none): 16.7 nM

Sequence: UCUGGUCGGAAGGAUAUGGUCGGGUCAAAUCGGCCAGAAGGUCUGACAUGAGGAUCACCCAUGUGAGUCCAAAG [Esceus] (puzzle: Exclusion 6)
- apparent KD of MS2 coat protein [3]: 51.7 nM
- apparent KD of MS2 coat protein [2]: 21.6 nM
- apparent KD of MS2 coat protein [4]: 20.8 nM

Sequence: UCUGGUGCAGGAUAUACAUGAGGAUCACCCAUGUGAUCAGCAGUCCUCGGACUGCAAUGUAGAAGGGCACCAGA [E3/1-D2] (Eterna round: R97, puzzle: Exclusion 3)
- apparent KD of MS2 coat protein (input ligand: FMN 200 uM): 47.1 nM
- apparent KD of MS2 coat protein (input ligand: none): 1230 nM

Sequence: UCUUCACAUGAGGAUCACCCAUGUCAGGAUAUAAGGUCUUGUCUACGUUGAAGGGACUUUAGAAGGGACACUUG [EX1 B.6] (Eterna round: R97, puzzle: Exclusion 1)
- apparent KD of MS2 coat protein (input ligand: FMN 200 uM): 107 nM
- apparent KD of MS2 coat protein (input ligand: none): 36 nM

Sequence: UCUUCACAUGAGGAUCACCCAUGUGAGGAUAUGGAUUCGCUGGCCGUAGCCAGUGGAUCCAGAAGGCGCGUGAU [JL-ex1-4.23] (Eterna round: R97, puzzle: Exclusion 1)
- apparent KD of MS2 coat protein (input ligand: FMN 200 uM): 65 nM
- apparent KD of MS2 coat protein (input ligand: none): 74 nM

Sequence: UCUUGUUGUCCGUGAGAAGACAUGAGGAUCACCCAUGUUAGUUUGAUUAUGAUGUGUAAGUUUGUUGCUCGUUUUAU [JR_STOV1_v2_Sub071] (Eterna round: R97, puzzle: Sensor, turn-off variant 1)
- apparent KD of MS2 coat protein (input ligand: FMN 200 uM): 50.2 nM
- apparent KD of MS2 coat protein (input ligand: none): 56.5 nM

Sequence: UCUUUAUUUGUGAGGAUAUCGAUAAAAUGGAUUGUCGAGAAGGCACAUGAGGAUCACCCAUGUGUGGAACAGCA [JR_BMEx4_Sub024] (Eterna round: R97, puzzle: Brourd's mod of Exclusion 4)
- apparent KD of MS2 coat protein (input ligand: FMN 200 uM): 54.8 nM
- apparent KD of MS2 coat protein (input ligand: none): 18.8 nM

Sequence: UCUUUCAUUGUGAGGAUAUGCCCAAAUAAAAGCGGGCAGAAGGCACAUGAGGAUCACCCAUGUCCUGCGGUUAU [salish99_bmx4_r4_150] (Eterna round: R97, puzzle: Brourd's mod of Exclusion 4)
- apparent KD of MS2 coat protein (input ligand: FMN 200 uM): 357 nM
- apparent KD of MS2 coat protein (input ligand: none): 56.9 nM

Sequence: UGAACUGUAGGAUAUACAUGAGGAUCACCCAUGUCCCUUCGAUGAGGUCCCACCACGUGUAGAAGGAUGGAAGA [Eternabot (L1) Solution 11] (Eterna round: R97, puzzle: Exclusion 3)
- apparent KD of MS2 coat protein (input ligand: FMN 200 uM): 36.8 nM
- apparent KD of MS2 coat protein (input ligand: none): 42.2 nM

Sequence: UGAAUGUGAGGAUAUGGUGAGUAGUGCCUGAGCGCUGCUCACCAGAAGGCACAUGAGGAUCACCCAUGUACUUG [JL-ex4-2.07 denovo] (puzzle: Exclusion 4)
- apparent KD of MS2 coat protein [2]: 49.4 nM

Sequence: UGACAGUGAGGAUAUUAUCUGAGGGACAUGAGGAUCACCCAUGUGCACUCACGGGCCCAGUAAGAAGGCACGAGCU [EX5 B.23] (Eterna round: R97, puzzle: Exclusion 5)
- apparent KD of MS2 coat protein (input ligand: FMN 200 uM): 18.1 nM
- apparent KD of MS2 coat protein (input ligand: none): 18.8 nM

Sequence: UGAGCAUCAGGAUAUACAAGGCGACCGUGAGGUCGAAGGUUACAUGAGGAUCACCCAUGUAGAAGGGAUGUUCU [jl-ex2-4.11] (Eterna round: R97, puzzle: Exclusion 2)
- apparent KD of MS2 coat protein (input ligand: FMN 200 uM): 49.4 nM
- apparent KD of MS2 coat protein (input ligand: none): 25.4 nM

Sequence: UGAGCAUCAGGAUAUACAAGGCGACCGUGAGGUCGAGGGUUACAUGAGGAUCACCCAUGUAGAAGGGAUGUUCU [jl-ex2-4.09] (Eterna round: R97, puzzle: Exclusion 2)
- apparent KD of MS2 coat protein (input ligand: FMN 200 uM): 196 nM
- apparent KD of MS2 coat protein (input ligand: none): 43.4 nM

Sequence: UGAGGACAUGAGGAUCACCCAUGUAAGGAUAUGCGGAGAGCUUGGAGAGGUUGAGGAGGCAGAAGGUACAGGAC [JR_Exclu1_Sub048] (puzzle: Exclusion 1)
- apparent KD of MS2 coat protein [3]: 47.7 nM
- apparent KD of MS2 coat protein [2]: 48.3 nM
- apparent KD of MS2 coat protein [4]: 57 nM
